According to paper PMC12733253, “NFE2 Truncation Mutants Protect Wild-Type NFE2 from ITCH-Dependent Degradation” (International Journal of Molecular Sciences, 2025):

Target: itchy E3 ubiquitin protein ligase (ITCH), wild type, MYC-tagged (UniProt Q96J02-2 1-862)
Assay: cell-based or functional assay

itchy E3 ubiquitin protein ligase (ITCH), wild type, MYC-tagged, sequence (Q96J02 other isoform, or with tags, fused parts or gaps): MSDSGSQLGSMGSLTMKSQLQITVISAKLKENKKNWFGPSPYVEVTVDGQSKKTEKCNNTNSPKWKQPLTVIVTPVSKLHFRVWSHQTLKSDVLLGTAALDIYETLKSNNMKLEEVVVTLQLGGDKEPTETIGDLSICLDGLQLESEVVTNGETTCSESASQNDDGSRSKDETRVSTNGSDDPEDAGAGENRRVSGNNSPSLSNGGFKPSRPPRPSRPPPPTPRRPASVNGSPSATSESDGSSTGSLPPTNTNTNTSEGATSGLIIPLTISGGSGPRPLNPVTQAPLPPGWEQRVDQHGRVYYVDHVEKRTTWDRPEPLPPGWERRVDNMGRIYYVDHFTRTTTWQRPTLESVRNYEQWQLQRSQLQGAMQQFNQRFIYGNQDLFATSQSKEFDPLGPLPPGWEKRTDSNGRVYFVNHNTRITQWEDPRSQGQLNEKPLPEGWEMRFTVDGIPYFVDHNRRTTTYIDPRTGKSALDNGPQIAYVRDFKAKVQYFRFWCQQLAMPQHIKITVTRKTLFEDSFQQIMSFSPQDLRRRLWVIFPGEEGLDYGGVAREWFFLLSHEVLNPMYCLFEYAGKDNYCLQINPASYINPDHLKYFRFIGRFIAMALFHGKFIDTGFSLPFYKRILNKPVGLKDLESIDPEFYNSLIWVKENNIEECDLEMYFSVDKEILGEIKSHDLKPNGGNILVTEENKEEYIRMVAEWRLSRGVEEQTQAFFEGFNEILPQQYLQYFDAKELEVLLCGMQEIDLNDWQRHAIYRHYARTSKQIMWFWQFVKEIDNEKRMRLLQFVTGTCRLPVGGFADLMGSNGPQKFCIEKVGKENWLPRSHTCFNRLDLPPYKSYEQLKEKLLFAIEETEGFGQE

B1: wild-type nuclear factor erythroid 2 (NFE2), HA-tagged (natural protein, human, UniProt Q16621 1-373, looked up)
chain: MSPCPPQQSRNRVIQLSTSELGEMELTWQEIMSITELQGLNAPSEPSFEPQAPAPYLGPPPPTTYCPCSIHPDSGFPLPPPPYELPASTSHVPDPPYSYGNMAIPVSKPLSLSGLLSEPLQDPLALLDIGLPAGPPKPQEDPESDSGLSLNYSDAESLELEGTEAGRRRSEYVEMYPVEYPYSLMPNSLAHSNYTLPAAETPLALEPSSGPVRAKPTARGEAGSRDERRALAMKIPFPTDKIVNLPVDDFNELLARYPLTESQLALVRDIRRRGKNKVAAQNCRKRKLETIVQLERELERLTNERERLLRARGEADRTLEVMRQQLTELYRDIFQHLRDESGNSYSPEEYALQQAADGTIFLVPRGTKMEATD
Question: B1 was tested. Which “NFE2 half-life in a cycloheximide chase, HEK-293T co-transfected with wt NFE2 and wt ITCH (approximately 3.5 h with empty vector; 6.5 h with inactive ITCH-C830A)” value did it give?
Answer: Its value is roughly 2 h.
